The values that follow come from patent US20030007968A1, “Methods of inducing organ transplant tolerance and correcting hemoglobinopathies” (priority 2001, published 2003).

The target in series [1] is T1, CD86Ig (Homo sapiens, UniProt P42081).
T1 construct: Ig (immunoglobulin fusion partner)
In words: BIAcore surface plasmon resonance equilibrium and kinetic binding to immobilized CD86Ig. To be noted: for slower “off” rate than wild type CTLA4Ig: screening of COS culture media samples over immobilized CD86Ig; for koff / kon: immobilized CD86Ig, means±standard deviation from three experiments. The text has this:
(§1) To synthesize and screen soluble CTLA4 mutant molecules with altered affinities for a B7 molecule (e.g. CD80, CD86), a two-step strategy was adopted. The experiments entailed first generating a library of mutations at a specific codon of an extracellular portion of CTLA4 and then screening these by BIAcore analysis to identify mutants with altered reactivity to B7. The Biacore assay system (Pharmacia, Piscataway, N.J.) uses a surface plasmon resonance detector system that essentially involves covalent binding of either CD80Ig or CD86Ig to a dextran-coated sensor chip which is located in a detector. The test molecule can then be injected into the chamber containing the sensor chip and the amount of complementary protein that binds can be assessed based on the change in molecular mass which is physically associated with the dextran-coated side of the sensor chip; the change in molecular mass can be measured by the detector system.
(§2) COS cells were transfected with individual miniprep purified plasmid DNA and propagated for several days. Three day conditioned culture media was applied to BIAcore biosensor chips (Pharmacia Biotech AB, Uppsala, Sweden) coated with soluble CD80Ig or CD86Ig. The specific binding and dissociation of mutant proteins was measured by surface plasmon resonance (O'Shannessy, D. J., et al., 1997 Anal. Biochem. 212:457-468). All experiments were run on BIAcore™ or BIAcore™ 2000 biosensors at 25° C. Ligands were immobilized on research grade NCM5 sensor chips (Pharmacia) using standard N-ethyl-N′-(dimethylaminopropyl) carbodiimidN-hydroxysuccinimide coupling (Johnsson, B., et al. (1991) Anal. Biochem. 198: 268-277; Khilko, S. N., et al.(1993) J. Biol. Chem 268:5425-15434).
(§3) BIAcore analysis conditions and equilibrium binding data analysis were performed as described in J. Greene et al. 1996 J. Biol. Chem. 271:26762-26771 and in U.S. patent application Ser. Nos. 09/579,927, and 60/214,065 which are herein incorporated by reference.
(§4) Senosorgram baselines were normalized to zero response units (RU) prior to analysis. Samples were run over mock-derivatized flow cells to determine background RU values due to bulk refractive index differences between solutions. Equilibrium dissociation constants (Kd) were calculated from plots of Req versus C, where Req is the steady-state response minus the response on a mock-derivatized chip, and C is the molar concentration of analyte. Binding curves were analyzed using commercial nonlinear curve-fitting software (Prism, GraphPAD Software).
(§5) Experimental data were first fit to a model for a single ligand binding to a single receptor (1-site model, i.e., a simple langmuir system, A+B AB), and equilibrium […] constants (Kd=[A]·[B]\[AB]) were calculated from the equation R=Rmax·C/(Kd+C). Subsequently, data were fit to the simplest two-site model of ligand binding (i.e., to a receptor having two non-interacting independent binding sites as described by the equation R=Rmax1·C\(Kd1+C)+Rmax2·C\(Kd2+C).
(§6) The goodness-of-fits of these two models were analyzed visually by comparison with experimental data and statistically by an F test of the sums-of-squares.
(§7) Association and disassociation analyses were performed using BIA evaluation 2.1 Software Pharmacia). Association rate constants kon were calculated in two ways, assuming both homogenous single-site interactions and parallel two-site interactions. For single-site interactions, kon values were calculated according to the equation Rt=Req(1−exp^−ks(t-t0), where Rt is a response at a given time, t; Req is the steady-state response; to is the time at the start of the injection; and ks=dR/dt=kon·Ckoff, where C is a concentration of analyte, calculated in terms of monomeric binding sites. For two-site interactions kon values were calculated according to the equation Rt=Req1(1−exp^−ks1(t-t0)+Req2(1−exp^ks2(t-t0). For each model, the values of kon were determined from the calculated slope (to about 70% maximal association) of plots of ks versus C. […]

Series [2] concerns the target T2, CD80Ig (Homo sapiens, UniProt P33681).
T2 construct: Ig (immunoglobulin fusion partner)
Kind of series: BIAcore surface plasmon resonance equilibrium and kinetic binding to immobilized CD80Ig. Conditions: for koff / kon: immobilized CD80Ig, means±standard deviation from three experiments.
Source text: as §1, §2, §3, §4, §5, §6, §7

For series [3], the system named is C57BL/6 (B6) recipient mice. In words: Congenic T cell-depleted bone marrow transplant after single busulfan dose, donor chimerism by flow cytometry. The format is in vivo, mouse. Conditions: busulfan 0, 10, 20, 30 mg/kg i.p. one day before 2×10^7 congenic T cell-depleted bone marrow cells. As for the experimental part: Bone marrow preparation and treatment regimens.
Similar results were achieved when the busulfan was administered six or twelve hours before the administration of the T cell-depleted bone marrow cells.

For series [4] the following is noted: with marrow rescue; cited from earlier work.
Series [5] concerns the target T3, CD86Ig (UniProt P42081 24-247, limits assumed).
T3 construct: Immobilized on the BIAcore chip by amine coupling; also called soluble CD86Ig
T3 sequence (looked up): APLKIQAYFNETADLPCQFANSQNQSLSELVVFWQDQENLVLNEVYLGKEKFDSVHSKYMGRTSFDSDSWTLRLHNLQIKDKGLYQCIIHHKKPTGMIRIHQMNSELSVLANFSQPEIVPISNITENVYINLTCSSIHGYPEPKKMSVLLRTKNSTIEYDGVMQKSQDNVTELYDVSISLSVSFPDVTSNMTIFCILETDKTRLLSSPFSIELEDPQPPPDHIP
Kind of series: SPR (BIAcore), CD86Ig immobilized, purified monomeric analyte.

Series [6] deals with T4, CD80Ig (UniProt P33681 35-242, limits assumed).
T4 construct: Immobilized on the BIAcore chip by amine coupling; also called soluble CD80Ig
T4 sequence (looked up): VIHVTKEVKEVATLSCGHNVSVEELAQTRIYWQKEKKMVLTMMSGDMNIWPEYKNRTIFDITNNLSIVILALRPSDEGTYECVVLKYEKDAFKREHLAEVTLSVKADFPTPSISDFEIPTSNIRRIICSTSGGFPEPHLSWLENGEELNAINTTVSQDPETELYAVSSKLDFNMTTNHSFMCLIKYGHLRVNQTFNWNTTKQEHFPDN
In words: SPR (BIAcore), CD80Ig immobilized, purified monomeric analyte.

Series [7] has as its target T3, CD86Ig. In words: SPR, immobilized CD86Ig.
Series [8] has as its target T3, CD86Ig. Kind of series: SPR, immobilized CD86Ig, monomer against dimer (L104EA29YIg).
Series [9] addresses T4, CD80Ig. In words: SPR, immobilized CD80Ig.
The target of series [10] is T4, CD80Ig. In words: SPR (BIAcore), equilibrium, CD80Ig immobilized, purified monomeric analyte.
Series [11] has as its target T3, CD86Ig. In words: SPR (BIAcore), equilibrium, CD86Ig immobilized, purified monomeric analyte.

T1 sequence (P42081 with tags, fused parts or gaps limits assumed): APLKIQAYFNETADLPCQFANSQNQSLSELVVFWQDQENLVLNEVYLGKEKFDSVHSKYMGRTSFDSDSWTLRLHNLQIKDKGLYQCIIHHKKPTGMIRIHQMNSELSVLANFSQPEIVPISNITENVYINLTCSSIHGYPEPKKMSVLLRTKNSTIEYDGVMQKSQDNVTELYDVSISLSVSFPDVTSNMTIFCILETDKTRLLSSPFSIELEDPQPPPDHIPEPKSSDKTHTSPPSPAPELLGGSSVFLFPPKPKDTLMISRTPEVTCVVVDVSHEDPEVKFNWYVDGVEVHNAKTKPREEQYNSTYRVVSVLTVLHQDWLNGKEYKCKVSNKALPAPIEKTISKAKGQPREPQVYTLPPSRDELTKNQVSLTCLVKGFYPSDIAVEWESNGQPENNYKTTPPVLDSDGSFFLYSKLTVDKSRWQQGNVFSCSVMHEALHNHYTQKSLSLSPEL
T2 sequence (P33681 with tags, fused parts or gaps limits assumed): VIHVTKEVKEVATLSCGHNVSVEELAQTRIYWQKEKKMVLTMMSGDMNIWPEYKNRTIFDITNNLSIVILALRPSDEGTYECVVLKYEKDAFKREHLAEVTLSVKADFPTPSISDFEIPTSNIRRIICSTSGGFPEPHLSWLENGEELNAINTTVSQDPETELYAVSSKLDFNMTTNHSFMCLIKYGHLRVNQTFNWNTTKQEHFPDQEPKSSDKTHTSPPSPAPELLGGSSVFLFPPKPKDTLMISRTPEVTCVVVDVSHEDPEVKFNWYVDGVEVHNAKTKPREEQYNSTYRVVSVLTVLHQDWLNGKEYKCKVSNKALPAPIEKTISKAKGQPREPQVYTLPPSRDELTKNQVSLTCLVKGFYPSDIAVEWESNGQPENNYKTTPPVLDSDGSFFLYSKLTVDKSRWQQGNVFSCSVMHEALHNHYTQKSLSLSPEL

Take “L104EA29WIg: double-site CTLA4 mutant Ig fusion, L104E and alanine +29 to tryptophan”: the “slower “off” rate than wild type CTLA4Ig” value with CD86Ig [1] is reported as “approximately 4 fold”.

With “CTLA4XC120S: single chain (monomeric) CTLA4 extracellular domain with cysteine 120 to serine mutation [reference compound]”, in the series with CD80Ig [2], the koff was 230 ± 10 (× 10^−3) S^−1 and the kon is 12.0 ± 1.0 (× 10^5) M^−1 S^−1. In the series with CD86Ig [1], the koff was 840 ± 55 (× 10^−3) S^−1 and the kon is 16.5 ± 0.5 (× 10^5) M^−1 S^−1.

Consider `CS(=O)(=O)OCCCCOS(C)(=O)=O` [busulfan], for which the “levels of donor hematopoietic chimerism versus dose” value in series [3] is “directly proportional to the administered busulfan dose”. Further, in series [4], the LD50 is 136 mg/kg.

“L104EA29LIg: double-site CTLA4 mutant Ig fusion, L104E and alanine +29 to leucine”: the “slower “off” rate than wild type CTLA4Ig” value with CD86Ig [1] is recorded as “approximately 4 fold”.

Consider “L104EA29TIg: double-site CTLA4 mutant Ig fusion, L104E and alanine +29 to threonine”, for which the “slower “off” rate than wild type CTLA4Ig” value with CD86Ig [1] was “approximately 4 fold”.

B1: L104EA29YXC120S (receptor)
chain: MHVAQPAVVLASSRGIASFVCEYASPGKYTEVRVTVLRQADSQVTEVCAATYMMGNELTFLDDSICTGTSSGNQVNLTIQGLRAMDTGLYICKVELMYPPPYYEGIGNGTQIYVIDPEPSPDSD
notes: it was 'prepared in an identical manner' to CTLA4XC120S; also called monomeric L104EA29Y extracellular domain
B1: the koff is 0.3 s⁻¹ in the series with CD86Ig [5] and 0.071 s⁻¹ with CD80Ig [6]. Further, the kon with CD86Ig [5] turned out to be 1.14e+06 M⁻¹ s⁻¹; in the series with CD80Ig [6], 830000 M⁻¹ s⁻¹. For the same molecule, the “fold higher affinity than CTLA4XC120S” value in the series with CD86Ig [7] and with CD80Ig [9] was about 2 fold in each case. For the same molecule, the “fold slower rate of dissociation than CTLA4XC120S” value with CD86Ig [7] and in the series with CD80Ig [9] was about 3 fold throughout. In addition, the “fold lower binding affinity than the respective dimer” value with CD86Ig [8] is 35 to 80 fold. Also, the Kd was determined as 85 nM with CD80Ig [10] and 267 nM in the series with CD86Ig [11].

B2: L104EA29YXC120S: single chain (monomeric) L104EA29Y extracellular domain with cysteine 120 to serine mutation (protein)
chain: MHVAQPAVVLASSRGIASFVCEYASPGKYTEVRVTVLRQADSQVTEVCAATYMMGNELTFLDDSICTGTSSGNQVNLTIQGLRAMDTGLYICKVELMYPPPYYEGIGNGTQIYVIDPEPSPDSD
In the case of B2, in the series with CD80Ig [2], the koff is listed as 71 ± 5 (× 10^−3) S^−1 and the kon is listed as 8.3 ± 0.26 (× 10^5) M^−1 S^−1. In addition, in the series with CD80Ig [2] (monomeric proteins), the “higher affinity than CTLA4XC120S to CD80Ig” value is listed as “approximately 2 fold” and the “slower rate of dissociation from CD80Ig than CTLA4XC120S” value was “approximately 3 fold”. In the series with CD86Ig [1], the koff is on record as 300 ± 10 (× 10^−3) S^−1 and the kon is given as 11.4 ± 1.6 (× 10^5) M^−1 S^−1. Besides, in the series with CD86Ig [1] (monomeric proteins), the “higher affinity than CTLA4XC120S to CD86Ig” value is listed as “approximately 2 fold” and the “slower rate of dissociation from CD86Ig than CTLA4XC120S” value was “approximately 3 fold”.
